Data: PMC6499725

Molecular target: propionyl-CoA synthase (PCS) from Erythrobacter sp. NAP1 (Erythrobacter sp. NAP1)
Assay: crystal structure

## propionyl-CoA synthase (PCS) from Erythrobacter sp. NAP1 (enzyme)
  stoichiometry N: 2
